Consider eleven molecules from patent publication US20030232009A1 (Amgen, published 2003).

Positions count from the first letter of the chain named. Read-outs that look alike come from different tables or passages of the source.

Assay [1] deals with T1, Human 46 mer peptide (RB exon of human CD45) (human).
T1 construct: synthetic peptide; also called CD45RB 46 mer
T1 peptide: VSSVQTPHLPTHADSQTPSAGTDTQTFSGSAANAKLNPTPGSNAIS
As to the kind of experiment: ELISA, well supernatant on coated peptide. (An ELISA detects its analyte on a solid surface through an enzyme-linked reagent.)

The target in assay [2] is T2, Macaque 46 mer peptide (RB exon of macaque CD45RB) (macaque).
T2 construct: synthetic peptide
T2 peptide: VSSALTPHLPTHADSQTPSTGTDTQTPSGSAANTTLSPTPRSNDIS
Kind of assay: ELISA, well supernatant on coated peptide.

The target of assay [3] is T3, Human 20.1 peptide (human).
T3 construct: synthetic peptide from the RB exon
T3 peptide: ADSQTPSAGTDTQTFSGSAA
As to the kind of experiment: ELISA, well supernatant on coated peptide.

The target of assay [4] is T2, Macaque 46 mer peptide (RB exon of …). Kind of assay: recombinant antibody on peptide.
The target in assay [5] is T4, Human 18 mer peptide (human).
T4 construct: synthetic peptide from the RB exon
T4 peptide: VSSVQTPHLPTHADSQTPC
As to the kind of experiment: recombinant antibody on peptide.

For assay [6], the target named is T3, Human 20.1 peptide. As to the kind of experiment: recombinant antibody on peptide.
The target in assay [7] is T5, Human 20.2 peptide (human).
T5 construct: synthetic peptide from the RB exon
T5 peptide: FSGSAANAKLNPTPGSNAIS
Kind of assay: recombinant antibody on peptide.

For assay [8], the target named is T6, chimeric CD45RB (full length human CD45RB with the macaque RB exon) transiently expressed in CHO cells (human; macaque, UniProt P08575-9 26-33; P08575-9 81-1192).
T6 construct: whole chimeric protein on CHO cells; also called Macaque CD45RB CHO
T6 sequence: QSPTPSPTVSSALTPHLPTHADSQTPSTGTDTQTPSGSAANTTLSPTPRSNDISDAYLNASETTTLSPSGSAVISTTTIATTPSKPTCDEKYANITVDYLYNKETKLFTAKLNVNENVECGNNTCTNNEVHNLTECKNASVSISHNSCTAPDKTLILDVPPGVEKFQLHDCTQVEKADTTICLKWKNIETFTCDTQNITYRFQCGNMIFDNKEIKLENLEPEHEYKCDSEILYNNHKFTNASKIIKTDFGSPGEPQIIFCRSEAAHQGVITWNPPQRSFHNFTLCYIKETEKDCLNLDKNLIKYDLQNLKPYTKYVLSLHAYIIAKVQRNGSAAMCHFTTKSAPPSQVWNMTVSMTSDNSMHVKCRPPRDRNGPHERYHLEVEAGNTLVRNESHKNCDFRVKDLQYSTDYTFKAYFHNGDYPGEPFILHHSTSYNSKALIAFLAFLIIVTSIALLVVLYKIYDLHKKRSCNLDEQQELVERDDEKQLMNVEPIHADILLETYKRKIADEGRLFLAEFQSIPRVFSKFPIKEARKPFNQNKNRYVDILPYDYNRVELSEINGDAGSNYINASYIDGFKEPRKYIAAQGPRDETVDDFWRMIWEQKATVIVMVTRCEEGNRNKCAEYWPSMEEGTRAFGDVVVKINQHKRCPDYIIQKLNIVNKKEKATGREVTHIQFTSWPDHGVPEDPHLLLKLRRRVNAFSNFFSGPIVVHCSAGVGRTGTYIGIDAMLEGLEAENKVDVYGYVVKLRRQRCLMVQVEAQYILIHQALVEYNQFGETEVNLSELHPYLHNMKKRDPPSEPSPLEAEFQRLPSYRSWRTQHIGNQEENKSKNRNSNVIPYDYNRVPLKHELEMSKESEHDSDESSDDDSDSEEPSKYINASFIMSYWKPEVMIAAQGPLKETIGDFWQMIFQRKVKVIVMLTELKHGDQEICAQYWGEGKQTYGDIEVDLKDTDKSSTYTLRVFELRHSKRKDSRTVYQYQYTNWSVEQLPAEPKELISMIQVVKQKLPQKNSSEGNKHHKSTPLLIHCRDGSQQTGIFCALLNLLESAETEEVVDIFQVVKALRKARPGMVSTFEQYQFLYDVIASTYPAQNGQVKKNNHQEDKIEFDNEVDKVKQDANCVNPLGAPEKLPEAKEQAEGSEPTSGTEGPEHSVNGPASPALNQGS
As to the kind of experiment: transiently transfected CHO cells.

The target of assay [9] is T1, Human 46 mer peptide (RB exon of human …). As to the kind of experiment: ELISA, well supernatant on coated peptide.
Assay [10] concerns the target T2, Macaque 46 mer peptide (RB exon of …). As to the kind of experiment: ELISA, well supernatant on coated peptide.
The target of assay [11] is T3, Human 20.1 peptide. Kind of assay: ELISA, well supernatant on coated peptide.
In assay [12] the target is T1, Human 46 mer peptide (RB exon of human …). Kind of assay: recombinant antibody on peptide.

B1: antibody in the supernatant of B cell culture well 255D9 (antibody, V domains shown)
VH: QVQLVESGGGVVQPGRSLRLSCAASGFTFSNYGMHWVRQAPGKGLEWVAVIWYDGSKKFYADSVKGRFTISRDNFEKTLYLQMNSLRAEDTAVYYCARGGGDFDYWGQGTLVTVSS
VL: EIVMTQSPATLSVSPGERATLSCRASQSLSGSYLAWYQQKPGQAPRLLIYSASTRATGIPARFSGSGSGTEFTLTISSLQSEDFAVYYCQQYNNWPPLTFGGGTKVEIK
notes: recombinant 713 came from this well
Regarding B1, the ELISA reading came to 3.5 in assay [1], 0.1 in assay [2] and 0.1 in [3].

B2: AB-CD45RB-XG2-439 (antibody, human IgG2, V domains shown)
VH: B1 VH with F75S, E76K, K77N, T78M, L79Q, N84D, T110I
VL: B1 VL with S28N, S32K, R46S, L47R, S51G, A52T, I59V, F84S
notes: recombinant human IgG2 kappa; also called sc439
Consider B2, for which the binding result in assay [4], in assay [5], in assay [6], in [7] and in [8] was “no binding” each time.

B3: AB-CD45RB-XG2-446 (antibody, human IgG2, V domains shown)
VH: B1 VH with R16K, S30R, F75S, E76K, K77N, Y80N, A97V
VL: B1 VL with P15L, S28N, L29I, S32N, K40R, L47R, T54S, A61D, I108M
notes: recombinant human IgG2 kappa; also called sc446
For B3, the binding result in [4], in assay [5], in assay [6], in [7] and in [8] was “no binding” in each case.

B4: antibody in the supernatant of B cell culture well 170B8 (antibody, V domains shown)
VH: AVQLLESGGGLIQPGGSLRLSCAASGFTFSSYAMSWVRQAPGKGLEWVSAISGSGGSTFYADSVRGRFTISRDNSKNTLYLQMNSLRVEDTAVYYCAKEVMGPIFFDYWGQGTLVTVSS
VL: EIVLTQSPGTLSLSPGERATLSCRASQSIISSALAWYQQKPGQAPRLLIYGASSRATGIPDRFSGSGSGTDFTLTISRLEPEDFAVYHCQQYGSTPLTFGGGTKVEIK
notes: recombinant 475 came from this well
Take B4: the ELISA reading in assay [9] was 2.5; in assay [10], 0.8; in assay [11], 3.9.

B5: antibody in the supernatant of B cell culture well 227E10 (antibody, V domains shown)
VH: QVHLVESGGGLVKPGGSLRLSCAASGFTFINYYMTWIRQAPGKGLEWVSYISLSGSTIYYADSVKGRFTISRDNAKNSLFLQMNSLRAEDTAVYYCARRAATVTTFDYWGQGTLVTVSS
VL: EIVMTQSPATLSVSPGERATLSCRASQSVRSNLAWSQQKPGQAPRLLIYGASTRATGIPARFSGSGSGTEFTLTISSLQSEDFAVYYCQQYNNWPLTFGGGTKVEIK
As for B5, the ELISA reading in assay [1] stood at 0.2; in [2] it was 0.2; in [3] it was 0.1.

B6: antibody in the supernatant of B cell culture well 283B2 (antibody, V domains shown)
VH: QVQLVESGGGLVKPGGSLRLSCAASGFTFNVYYMNWIRQAPGKGLEWVSYISTSSSAIYYADSVKGRFTISRDNAKNSLYLQMNSLRAEDTAVYYCARRTGSTTVFDYWGQGTLVTVSS
VL: B5 VL with M4L, V29I, R30N, S31N, S36Y, R61K, D82N, N93K
notes: recombinant 648 came from this well
For the molecule B6, the ELISA reading in [1] amounted to 0.2; in assay [2], 0.2; in [3] it was 0.1.

B7: AB-CD45RB-XG2-636 (antibody, human IgG2, V domains shown)
VH: B5 VH
VL: B5 VL
notes: recombinant human IgG2 kappa; also called sc636
For B7, the binding result in assay [12], in [4], in assay [5], in assay [6] and in [7] was “no binding” each time.

B8: AB-CD45RB-XG2-662 (antibody, human IgG2, V domains shown)
VH: QVQLVESGGDLVKPGGSLRLSCAASGFSFSGYYLSWIRQAPGKGLEWVSYISLSGSFIKYADSVKGRFTISRDNAKKTLHLQMNSLRAEDTAVYYCARRTGTTTVFDYWGQGTLVTVSS
VL: B5 VL with I2V, R30N, S36Y, K39R, A55V
notes: recombinant human IgG2 kappa; also called sc662
B8: the binding result in assay [12], in assay [4], in assay [5], in assay [6] and in assay [7] was “no binding” in each case.

B9: antibody in the supernatant of B cell culture well 250F2 (antibody, V domains shown)
VH: B8 VH
VL: B5 VL with I2V, R30N, S36Y, K39R, A55V
notes: recombinant 662 came from this well
On to B9, for which the values for the ELISA reading in [1], in assay [2] and in assay [3] were 0.2, 0.2 and 0.1, respectively.

B10: AB-CD45RB-XG2-556 (antibody, human IgG2, V domains shown)
VH: QVQLQESGPGLVKPSETLSLTCTVSGGSISGYYWSWIRQPAGKGLEWIGRIHTTGKTAYNPSLKSRVIMSVDTSKNLFSLKLTSVTAADTAVYYCARDYDFLTGYFDYWGQGTLVTVSS
VL: DVVMTQSPLSLPVTLGQPASISCRSSQSLVYSDGNTYLNWFQQRPGHSPRRLIYKVSNWDSGVPDRFSGSGSGTDFTLKISRVEAEDVGIYYCMQGTHWPPTFGQGTRVEIK
notes: recombinant human IgG2 kappa; also called sc556
On to B10, for which the binding result in [12], in [4], in assay [7] and in assay [8] was “no binding” throughout.

B11: AB-CD45RB-XG2-539 (antibody, human IgG2, V domains shown)
VH: B10 VH with Y32S, T53S, V71L
VL: B10 VL with S32G
notes: recombinant human IgG2 kappa; also called sc539
Regarding B11, the binding result in assay [12], in assay [4], in [7] and in assay [8] was “no binding” each time.
